System: PPO-deficient BT3 E. coli (ΔPPO)
Assay: PPO-inhibiting herbicide tolerance test of PPO variants in E. coli (growth on herbicide-containing LB agar)
Format: cell-based
Conditions: CyPPO19 variants in BT3 (ΔPPO) E. coli; LB agar with 0 to 2,000 μM herbicide, 37° C., dark, 16-20 hours
In short: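 PPO-deficient BT3 E. coli expressing each variant from pET303 were diluted to OD600=0.5, then 10-fold serially, and spotted on LB-ampicillin agar with 0 to 2,000 μM herbicide. After 16-20 h at 37° C. in the dark, growth relative to wild type was scored from '−' (equivalent) to '+' per 10-fold resistance, max '+++++'.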

B1: CyPPO19 V305L + F360M: variant of CyPPO19 PPO protein (SEQ ID NO: 1) (protein)
chain: MSEVDVAIVGGGLSGLSLAWRLQQSAPQYSVVLLEASDRLGGNITTQTAEGFVWELGPNSFAPTPALLQLIAEVGLQSELIRGDRHLPRYIYWRGQLYPLQPTRPLALATSNLLSPWGKVRAALGALGFVPPYLGSGDESVNSFFRRHLGQEVAERLVAPFVSGVYAGDPQQLSAAAAFRRIAQLEKLGGGLIAGALHLRRQQAPKPKPPTSVQMRPGELGSFKEGLAALPRAIAQQLKAPIHLQTPVQEITPDPKGGYLLRSGEQTWRARSVVLATPAYQTAELVAPFQPAIARVLATIPYPTLACVVLAYPAGLGRSVRPGFGVLIPRSQGIRTLGTIWSSCLFPQRTPAGWQVFTSMIGGATDPDLASLSEEAIVQQVQQDLNRLLDLPAAKARLLGMKVWRRAIPQYMVGYPEQWQQVTHALSQTPGLFLCSNYAEGVALGDRVEHGNRTAAAVAAYLSGGQP
modifications: Synthetic_PPO of Thermosynechococcus elongatus PKUAC-SCTE542 (comprising GenBank No. CP032152.1)
tolerance level relative to wild type, Carfentrazone: + (‘+’ per each 10-fold resistance)
tolerance level relative to wild type, Flumioxazin: ++++ (‘+’ per each 10-fold resistance)
tolerance level relative to wild type, Fomesafen: +++ (‘+’ per each 10-fold resistance)
tolerance level relative to wild type, Oxyfluorfen: ++ (‘+’ per each 10-fold resistance)
tolerance level relative to wild type, Saflufenacil: ++++ (‘+’ per each 10-fold resistance)
tolerance level relative to wild type, Sulfentrazone: + (‘+’ per each 10-fold resistance)
tolerance level relative to wild type, Tiafenacil: +++ (‘+’ per each 10-fold resistance)

B2: CyPPO19 V305M + F360M: variant of CyPPO19 PPO protein (SEQ ID NO: 1) (protein)
chain: MSEVDVAIVGGGLSGLSLAWRLQQSAPQYSVVLLEASDRLGGNITTQTAEGFVWELGPNSFAPTPALLQLIAEVGLQSELIRGDRHLPRYIYWRGQLYPLQPTRPLALATSNLLSPWGKVRAALGALGFVPPYLGSGDESVNSFFRRHLGQEVAERLVAPFVSGVYAGDPQQLSAAAAFRRIAQLEKLGGGLIAGALHLRRQQAPKPKPPTSVQMRPGELGSFKEGLAALPRAIAQQLKAPIHLQTPVQEITPDPKGGYLLRSGEQTWRARSVVLATPAYQTAELVAPFQPAIARVLATIPYPTMACVVLAYPAGLGRSVRPGFGVLIPRSQGIRTLGTIWSSCLFPQRTPAGWQVFTSMIGGATDPDLASLSEEAIVQQVQQDLNRLLDLPAAKARLLGMKVWRRAIPQYMVGYPEQWQQVTHALSQTPGLFLCSNYAEGVALGDRVEHGNRTAAAVAAYLSGGQP
modifications: Synthetic_PPO of Thermosynechococcus elongatus PKUAC-SCTE542 (comprising GenBank No. CP032152.1)
tolerance level relative to wild type, Carfentrazone: + (‘+’ per each 10-fold resistance)
tolerance level relative to wild type, Flumioxazin: ++++ (‘+’ per each 10-fold resistance)
tolerance level relative to wild type, Fomesafen: +++ (‘+’ per each 10-fold resistance)
tolerance level relative to wild type, Oxyfluorfen: ++ (‘+’ per each 10-fold resistance)
tolerance level relative to wild type, Saflufenacil: ++++ (‘+’ per each 10-fold resistance)
tolerance level relative to wild type, Sulfentrazone: ++ (‘+’ per each 10-fold resistance)
tolerance level relative to wild type, Tiafenacil: ++++ (‘+’ per each 10-fold resistance)

B3: CyPPO19 V305M + F360V: variant of CyPPO19 PPO protein (SEQ ID NO: 1) (protein)
chain: MSEVDVAIVGGGLSGLSLAWRLQQSAPQYSVVLLEASDRLGGNITTQTAEGFVWELGPNSFAPTPALLQLIAEVGLQSELIRGDRHLPRYIYWRGQLYPLQPTRPLALATSNLLSPWGKVRAALGALGFVPPYLGSGDESVNSFFRRHLGQEVAERLVAPFVSGVYAGDPQQLSAAAAFRRIAQLEKLGGGLIAGALHLRRQQAPKPKPPTSVQMRPGELGSFKEGLAALPRAIAQQLKAPIHLQTPVQEITPDPKGGYLLRSGEQTWRARSVVLATPAYQTAELVAPFQPAIARVLATIPYPTMACVVLAYPAGLGRSVRPGFGVLIPRSQGIRTLGTIWSSCLFPQRTPAGWQVFTSVIGGATDPDLASLSEEAIVQQVQQDLNRLLDLPAAKARLLGMKVWRRAIPQYMVGYPEQWQQVTHALSQTPGLFLCSNYAEGVALGDRVEHGNRTAAAVAAYLSGGQP
modifications: Synthetic_PPO of Thermosynechococcus elongatus PKUAC-SCTE542 (comprising GenBank No. CP032152.1)
tolerance level relative to wild type, Carfentrazone: + (‘+’ per each 10-fold resistance)
tolerance level relative to wild type, Flumioxazin: ++++ (‘+’ per each 10-fold resistance)
tolerance level relative to wild type, Fomesafen: + (‘+’ per each 10-fold resistance)
tolerance level relative to wild type, Oxyfluorfen: ++ (‘+’ per each 10-fold resistance)
tolerance level relative to wild type, Saflufenacil: ++++ (‘+’ per each 10-fold resistance)
tolerance level relative to wild type, Sulfentrazone: + (‘+’ per each 10-fold resistance)
tolerance level relative to wild type, Tiafenacil: ++++ (‘+’ per each 10-fold resistance)

B4: CyPPO19 V305M + F360L: variant of CyPPO19 PPO protein (SEQ ID NO: 1) (protein)
chain: MSEVDVAIVGGGLSGLSLAWRLQQSAPQYSVVLLEASDRLGGNITTQTAEGFVWELGPNSFAPTPALLQLIAEVGLQSELIRGDRHLPRYIYWRGQLYPLQPTRPLALATSNLLSPWGKVRAALGALGFVPPYLGSGDESVNSFFRRHLGQEVAERLVAPFVSGVYAGDPQQLSAAAAFRRIAQLEKLGGGLIAGALHLRRQQAPKPKPPTSVQMRPGELGSFKEGLAALPRAIAQQLKAPIHLQTPVQEITPDPKGGYLLRSGEQTWRARSVVLATPAYQTAELVAPFQPAIARVLATIPYPTMACVVLAYPAGLGRSVRPGFGVLIPRSQGIRTLGTIWSSCLFPQRTPAGWQVFTSLIGGATDPDLASLSEEAIVQQVQQDLNRLLDLPAAKARLLGMKVWRRAIPQYMVGYPEQWQQVTHALSQTPGLFLCSNYAEGVALGDRVEHGNRTAAAVAAYLSGGQP
modifications: Synthetic_PPO of Thermosynechococcus elongatus PKUAC-SCTE542 (comprising GenBank No. CP032152.1)
tolerance level relative to wild type, Carfentrazone: + (‘+’ per each 10-fold resistance)
tolerance level relative to wild type, Flumioxazin: ++++ (‘+’ per each 10-fold resistance)
tolerance level relative to wild type, Fomesafen: ++ (‘+’ per each 10-fold resistance)
tolerance level relative to wild type, Oxyfluorfen: ++ (‘+’ per each 10-fold resistance)
tolerance level relative to wild type, Saflufenacil: ++++ (‘+’ per each 10-fold resistance)
tolerance level relative to wild type, Sulfentrazone: ++ (‘+’ per each 10-fold resistance)
tolerance level relative to wild type, Tiafenacil: ++++ (‘+’ per each 10-fold resistance)
